Results: PMC10250241 (Nucleic Acids Research, 2023)

B1: mms22N-3D (S126, T127, S131D) (domain or fragment, S. cerevisiae, UniProt Q06164 1-300, looked up)
chain: MDVDEPNPIVISDSEATDEEISIIYEPEFNENYLWAEENVQEASRSQKIVTERLSLDSTAGESCTPSVVTDTQVTTGLRWSLRKRKAIQKMPYSLERIKHRQLLEGYDISSFDSISNQLTLPKNADDVIHDNDILLTKRTGKPLDEQKDVTIDSIKPENSSVQSQRYDSDEEIPKKRHRTFKDLDQDIVFQSGDSTEDEQDLASTNLQNTQNDEVIFRGRVLNVRTGYRGVLPRVAWEKSLQKQQSSKVTKRKTQLLNHKGVAKRKMNRSAHIEDEEQNLLNDLIAPDDELDIEENAPPD

Assays:
SEC = molecular target: the molecule itself; assay: SEC
[1] = molecular target: B1; assay: SEC

B1
stoichiometry N (SEC): 2

B2: His6-Eco1 (enzyme, S. cerevisiae, UniProt P43605 1-281, looked up)
chain: MKARKSQRKAGSKPNLIQSKLQVNNGSKSNKIVKCDKCEMSYSSTSIEDRAIHEKYHTLQLHGRKWSPNWGSIVYTERNHSRTVHLSRSTGTITPLNSSPLKKSSPSITHQEEKIVYVRPDKSNGEVRAMTEIMTLVNNELNAPHDENVIWNSTTEEKGKAFVYIRNDRAVGIIIIENLYGGNGKTSSRGRWMVYDSRRLVQNVYPDFKIGISRIWVCRTARKLGIATKLIDVARENIVYGEVIPRYQVAWSQPTDSGGKLASKYNGIMHKSGKLLLPVYI
binding result [1]: binds
